We go through two molecules from article PMC10631208.

The target in data set [1] is T1, PDGF-BB (human, UniProt P01127 82-190). Put plainly: structure-switching fluorescence.
For data set [2], the target named is T1, PDGF-BB. The experiment in a line: structure-switching fluorescence. The source holds these as a separate data set.

T1 sequence (P01127 82-190): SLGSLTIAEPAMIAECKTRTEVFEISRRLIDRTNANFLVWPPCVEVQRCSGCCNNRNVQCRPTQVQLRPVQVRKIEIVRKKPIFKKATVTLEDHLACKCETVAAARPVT

B1: SPDGF (Apt35-FAM/cDNA12-BHQ1/cDNADCV) (mixed)
DNA 1: AAGGCTACGGCACGTAGAGCATCACCATGATCCTGTGTGGTCTATGTCGTCGTTCG
DNA 2: TGCCGTAGCCTT
DNA 3: AAGTATTACCAGAAACGAACGACGACATAGACCACA
Regarding B1, the binding signal with PDGF-BB [1] was ~6.9 fold fluorescence increase.

B2: mSPDGF (mApt35-FAM/cDNA12-BHQ1/cDNADCV) (mixed)
DNA 1: AAGGCTACGGCACGATCTCGTAGTGGTCTGACTGCTGTGGTCTATGTCGTCGTTCG
DNA 2: TGCCGTAGCCTT
DNA 3: B1 DNA 3
As to B2, in the data set with PDGF-BB [2], the binding result is given as “no binding”.
